First the molecules themselves.
B1: GCC-box-like sequence 1 (dsDNA)
DNA 1: GAATGGGCGATAGAGCTCATACTTACCCGCCTCTCTTCACATTCAAACTTCTAATATTA
DNA 2: TAATATTAGAAGTTTGAATGTGAAGAGAGGCGGGTAAGTATGAGCTCTATCGCCCATTC
B2: mGCC-box-like sequence 1 (dsDNA)
DNA 1: GAATGGGCGATAGAGCTCATACTTAAAAGCCTCTCTTCACATTCAAACTTCTAATATTA
DNA 2: TAATATTAGAAGTTTGAATGTGAAGAGAGGCTTTTAAGTATGAGCTCTATCGCCCATTC
B3: GCC-box-like sequence 2 (dsDNA)
DNA 1: AATTTACAAAATTATAGAAGTCAAATTACGACGTCGTAAATCTGGCGGGACTTTAATGG
DNA 2: CCATTAAAGTCCCGCCAGATTTACGACGTCGTAATTTGACTTCTATAATTTTGTAAATT
B4: mGCC-box-like sequence 2 (dsDNA)
DNA 1: AATTTACAAAATTATAGAAGTCAAATTACGACGTCGTAAATCTGGCAAAACTTTAATGG
DNA 2: CCATTAAAGTTTTGCCAGATTTACGACGTCGTAATTTGACTTCTATAATTTTGTAAATT

In the data set the target is CitERF71 (Citrus sinensis Osbeck (Newhall sweet …, UniProt A0A067HCL9 1-233)). In words: EMSA; LightShift Chemiluminescent EMSA kit per manufacturer and Nieuwenhuizen et al. 2015; buffer, salt, pH and temperature not stated. The settings on record: protein: recombinant; tags: N-terminal 6xHN (His) tag; label: 3' biotin; blunt.
CitERF71 (Citrus sinensis Osbeck, sequence (A0A067HCL9 entry or part of it): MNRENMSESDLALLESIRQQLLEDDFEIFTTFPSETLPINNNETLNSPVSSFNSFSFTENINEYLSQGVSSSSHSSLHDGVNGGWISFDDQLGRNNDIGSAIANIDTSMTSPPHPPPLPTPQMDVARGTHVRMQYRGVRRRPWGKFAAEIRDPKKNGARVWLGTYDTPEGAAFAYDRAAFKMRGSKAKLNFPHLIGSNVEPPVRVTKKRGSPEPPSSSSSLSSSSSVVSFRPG
Consider B1, for which the binding result was “binds”.
The entry for B2 is “no binding”.
Consider B3, for which the binding result is given as “binds”.
As to B4, the binding result is “no binding”.
